Results reported in patent US20070072177A1.

B1: CR04-120 (antibody)
VH: AMAEVQLVQSGGGLVQPGRSLRLSCAASGFTFSTYGMHWVRQAPGKGLEWVATISYDGSIKDYADSEKGRFTISRDNSKNTLYLQMNSLRAEDTAVYYCAKGGKTGEFDYWGQGTLVTVSSGTGGSGGTGSGTGGSTDIQLTQSPSTLSASVGDRVTITCRASQGINSYLAWYQQEPGKAPKLLIYAASTLQSGVPSRFSGSGSGTEFTLTISSLQPEDFATYYCQQLNSYPFTFGPGTKVDIKRAAA
VL: B1 VH
B2: CR04-108 (antibody)
VH: AMAEVQLVQSGGGLVQPGGSLRLSCAASGFTFSSYGMHWVRQAPGKGLEWVAVILYDGSDKFYADSVKGRFTISRDNSKDTLYLQMNSLRAEDTAVYYCAKFMIVADDAFDIWGQGTMVTVSSGTGGSGGTGSGTGGSTDIQLTQSPSSLSASVGDRVTITCRASQGISSHLVWYQQKPGKAPKSLIYAASSLQSGVPSRFSGSESATDFTLTISSLQPEDFATYYCQQYYSYPITFGQGTRLEIKRAAA
VL: B2 VH
B3: CR04-140 (antibody)
VH: AMAQMQLVQSGGGVVQPGRSLRLSCAASGFTFSSYGMHWVRQAPGKGLEWVAVILYDGSNKYYADSVKGRFTISRDNSKNALYLQMNSLRAEDTAVYYCAKVTNPGDAFDIWGQGTMVTVSSGTGGSGGTGSGTGGSTDIQMTQSPSSLSASVGDRVTITCRASQGISSALAWYQQKPGKAPKLLIYDASSLESGVPSRFSGSGSGTDFTLTISSLQPEDFATYYCQQFNSYPLTFGGGTKVEIKRAAA
VL: B3 VH
B4: CR04-144 (antibody)
VH: AMAQVQLQELGGGVVQPGRSLRLSCAASGFTFGSYGMHWVRQAPGKGLEWVATISYDGSIKDYADSEKGRFTISRDNSKNTLYLQMNSLRAEDTAVYYCAKGGKTGEFDYWGQGTLVTVSSGTGGSGGTGSGTGGSTDIQLTQSPSSLSASVGDRVTITCRASQGISSYLAWYQQKPGKGPKLLIYAASTLQSGVPSRFSGSGSGTDFSLTISSLQPEDLATYYCQQYDSYPLTFGGGTKVEIKRAAA
VL: B4 VH

Biological target: rabies virus glycoprotein (G protein) of strain CVS-11 (rabies virus strain CVS-11) (UniProt O92284)
Sequence (O92284 20-524 limits assumed): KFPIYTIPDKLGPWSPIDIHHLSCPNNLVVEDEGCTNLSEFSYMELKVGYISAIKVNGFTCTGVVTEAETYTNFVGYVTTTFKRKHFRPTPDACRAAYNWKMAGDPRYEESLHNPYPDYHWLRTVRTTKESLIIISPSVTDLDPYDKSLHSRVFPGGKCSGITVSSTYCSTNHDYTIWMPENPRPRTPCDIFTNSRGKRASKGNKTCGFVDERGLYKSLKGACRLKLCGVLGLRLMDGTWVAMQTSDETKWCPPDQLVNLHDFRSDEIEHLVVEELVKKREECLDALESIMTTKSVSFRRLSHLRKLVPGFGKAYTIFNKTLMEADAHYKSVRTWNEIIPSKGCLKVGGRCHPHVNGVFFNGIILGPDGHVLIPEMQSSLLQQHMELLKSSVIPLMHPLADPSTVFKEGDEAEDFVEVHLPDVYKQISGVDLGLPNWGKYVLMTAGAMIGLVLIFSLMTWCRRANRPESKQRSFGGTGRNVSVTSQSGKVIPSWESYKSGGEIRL
Experiment: cell-based or functional assay

In order of falling Neutralizing potency (modified RFFIT):
1. B4  6250 IU/mg
2. B1  4940 IU/mg
3. B2  4870 IU/mg
4. B3  478 IU/mg
